T1: human GPC2 expressing cells HEK293T/hGPC2 (Homo sapiens, UniProt Q8N158)
T1 construct: expressed in transfected cells; host or cells: HEK293T (ATCC, #CRL-1573), plvx-EF1α-puro plasmid
T1 sequence (Q8N158 24-554): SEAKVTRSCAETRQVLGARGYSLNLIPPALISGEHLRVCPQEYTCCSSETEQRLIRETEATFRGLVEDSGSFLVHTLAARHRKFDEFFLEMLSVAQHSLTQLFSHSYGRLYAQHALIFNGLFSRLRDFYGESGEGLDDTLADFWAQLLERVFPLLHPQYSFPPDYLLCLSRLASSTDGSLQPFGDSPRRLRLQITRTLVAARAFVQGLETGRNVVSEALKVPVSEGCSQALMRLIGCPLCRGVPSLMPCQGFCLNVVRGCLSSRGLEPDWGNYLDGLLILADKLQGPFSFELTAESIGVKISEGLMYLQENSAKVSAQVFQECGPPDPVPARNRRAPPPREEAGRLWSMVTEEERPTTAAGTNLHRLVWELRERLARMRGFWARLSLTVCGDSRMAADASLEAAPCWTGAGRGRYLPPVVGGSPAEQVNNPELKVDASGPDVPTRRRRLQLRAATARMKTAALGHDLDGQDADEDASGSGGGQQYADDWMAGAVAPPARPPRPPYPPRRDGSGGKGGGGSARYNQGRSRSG

T2: human GPC2 expressing cells SH-SY5Y (Homo sapiens, UniProt Q8N158)
T2 construct: host or cells: SH-SY5Y
T2 sequence (Q8N158 24-554): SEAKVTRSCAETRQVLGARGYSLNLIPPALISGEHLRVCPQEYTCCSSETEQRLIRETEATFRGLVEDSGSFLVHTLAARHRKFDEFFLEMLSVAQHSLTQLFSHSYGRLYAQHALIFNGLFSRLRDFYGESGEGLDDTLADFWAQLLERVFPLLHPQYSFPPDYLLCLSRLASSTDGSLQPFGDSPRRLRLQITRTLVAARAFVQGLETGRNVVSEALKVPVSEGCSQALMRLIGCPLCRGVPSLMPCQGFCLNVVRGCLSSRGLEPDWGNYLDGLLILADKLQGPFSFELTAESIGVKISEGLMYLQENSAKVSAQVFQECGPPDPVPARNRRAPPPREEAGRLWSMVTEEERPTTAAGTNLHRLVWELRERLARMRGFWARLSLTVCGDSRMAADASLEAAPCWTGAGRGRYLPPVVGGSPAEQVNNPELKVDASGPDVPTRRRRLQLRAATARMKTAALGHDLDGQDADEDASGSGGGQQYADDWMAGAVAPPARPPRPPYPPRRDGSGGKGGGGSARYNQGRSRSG


Key:
[1] = test system: cynomolgus monkey GPC2 expressing cell HEK293T/cynoGPC2; assay: Flow cytometry binding of VHH-His proteins to HEK293T/cynoGPC2; conditions: FIG. 4A-4C
Description: (§1) Recombinant anti-GPC2 VHH-His proteins were constructed by fusing the anti-GPC2 VHH sequence to a mouse Ig heavy chain signal peptide sequence (N′-MGWSWILLFLLSVTAGVHS-C; SEQ ID NO: 179) at the N terminus, and a 6×His-tag (N′-HHHHHH-C; SEQ ID NO: 180) at the C terminus. The codons were further optimized for optimal expression in mammalian engineered immune effector cells. The obtained nucleotide sequences were then cloned into a mammalian expression vector pCDNA3.4 to provide expression plasmids.
(§2) Binding affinities of humanized VHH proteins AS70950VH6, AS71529VH6, AS72669VH6 and AS71529VH6-AS70950VH6 anti-GPC2 VHH-HIS proteins to human GPC2 expressing cells (SH-SY5Y and HEK293T/hGPC2) and cynomolgus monkey GPC2 expressing cell (HEK293T/cynoGPC2) were determined using flow cytometry. Briefly, serially diluted anti-GPC2 VHH-HIS proteins were incubated with 2×10^5 target cells at 4° C. for 30 mins. After washing, cells were further labelled with THE™ His tag Antibody (iFluor 647) (Genescript, #A01802) at 4° C. for 30 mins. Fluorescence intensity was measured by flow cytometry. A four parameters variable slope curve was fitted to each group using GraphPad Prism for Windows Version 6.02.

[2] = molecular target: T1, human GPC2 expressing cells HEK293T/hGPC2; assay: Flow cytometry binding of VHH-His proteins to HEK293T/hGPC2; conditions: FIG. 4A-4C
Description: as §1, §2

[3] = molecular target: T2, human GPC2 expressing cells SH-SY5Y; assay: Flow cytometry binding of VHH-His proteins to SH-SY5Y; conditions: FIG. 4A-4C
Description: as §1, §2

[4] = test system: neuroblastoma SH-SY5Y xenograft; format: in vivo, NCG mice; conditions: mouse, in vivo
Method: A single dose of untransduced T cells (10×10^6) or CAR T cells (5×10^6) was administered intravenously to tumor engrafted mice 9 days after tumor inoculation (FIG. 9A). […] At the end of obversion, 100% of monovalent CAR T cells (CAS70950VH6-BBz, CAS72669VH6-BBz) and 80% of multi-valent CAR T cells (CAS70950VH6-AS71529VH6-BBz) treated mice were alive (FIG. 9A). At day 42 post treatment, 2/5 mice (40%) treated with CAS72669VH6-BBz expressing CAR T cells were tumor-free and 3/5 mice (60%) treated with CAS70950VH6-AS71529VH6-BBz expressing CAR T cells were tumor-free without recurrence. […] The data highlighted the superiority of VHH-based CAR T cells in tumor regression and protection of mice from disease progression.
Moreover, the expansion and persistence of CAR T cells in vivo are also considered as critical predictors of durable clinical tumor regression in patients with cancer. […] Average 5.00±6.42% of CAR T cells were found in the peripheral blood of NCG mice treated with 5×10^6 CAS70950VH6-AS71529VH6-BBz CAR T cells, whereas less than 1% CAR T cells were detected in CAS70950VH6-BBz, CAS72669VH6-BBz and CAS71529VH6-BBz expressing CAR T groups. Expansion of CAR T cells in the CAS70950VH6-AS71529VH6-BBz group was inversely correlated with tumor size over time.

SH-SY5Y = assay: IFNγ release in co-culture with SH-SY5Y; format: cell-based, human; conditions: Example 7, co-culture with SH-SY5Y, FIG. 8D-8F
Description: (§3) In addition to the cytotoxicity data above, supernatants from the in vitro co-culture assays were also collected to assess CAR T cells-induced cytokine release, e.g., release of interferon gamma (i.e., IFNγ), as another indicator of cytotoxicity, was quantified using a HTRF human IFNγ AlphaLISA kit (Perkin Elmer, #62HIFNGPEH) per manufacturer's instruction. […] No significant cytokine release were detected against GPC2-negative cell line A-431.
(§4) Supernatants from the in vitro co-culture assays were collected to assess CAR T cells-induced cytokine release, e.g., interferon gamma (i.e., IFNγ) release as described in Example 6. […] IFNγ was not induced in GPC2-negative A-431 cells. […] Cytokine release data was consistent with the in vitro cytotoxicity data.

IMR-32 = assay: IFNγ release in co-culture with IMR-32; format: cell-based, human; conditions: Example 7, co-culture with IMR-32, FIG. 8D-8F
Description: as §3, §4

Row | Molecule | binding to HEK293T/cynoGPC2 [1] | binding to HEK293T/hGPC2 [2] | binding to SH-SY5Y [3] | percentage of CAR T cells in peripheral blood [4] | IFNγ release (SH-SY5Y) | IFNγ release (IMR-32)
1 | AS72669VH6: humanized anti-GPC2 VHH, SEQ ID NO: 130; tested as VHH-HIS protein (protein, His tag; AS72669VH6, tested as VHH-HIS protein) VHH: QVQLVESGGGVVQPGGSLRLSCAASRFTYSSYCMGWIRQAPGKGREGVAIFYTGGGRTYYADSVKGRFTISQDNSKNTLYLQMNSLRAEDTAVYYCVAGFYCSGGYWEGDFGYWGQGTLVTVSS | specifically bind | specifically bind | specifically bind |  |  | 
2 | AS71529VH6-AS70950VH6: tandem humanized anti-GPC2 VHH, SEQ ID NO: 146; tested as VHH-HIS protein (protein, His tag; AS71529VH6-AS70950VH6, tested as VHH-HIS protein) VHH: EVQLVESGGGLVQPGGSLRLSCAVSEYRYSSRYCMGWFRQAPGKGREGVAAIDSNGSADYVDSVKGRFTISKDNSKNTLYLQMNSLRAEDTAMYYCAADHLAYDCYSGATSVFRYWGQGTLVTVSSGGGGSGGGGSGGGGSEVQLVESGGGLVQPGGSLRLSCAISEFTYKNTCVGWFRQAPGKGREGVAAIDSDGNTNYVDSVKGRFTISQDNSKNTVYLQMNSLRAEDTAMYYCAAGAYCGRLLLWIGNYAYWGQGTLVTVSS | specifically bind | specifically bind | specifically bind |  |  | 
3 | CAS71529VH6-BBz: humanized VHH anti-GPC2 CAR (4-1BB, CD3ζ), SEQ ID NO: 223; tested as CAR T cells (protein, expressed in CAR T cells; CAS71529VH6-BBz) MALPVTALLLPLALLLHAARPEVQLVESGGGLVQPGGSLRLSCAVSEYRYSSRYCMGWFRQAPGKGREGVAAIDSNGSADYVDSVKGRFTISKDNSKNTLYLQMNSLRAEDTAMYYCAADHLAYDCYSGATSVFRYWGQGTLVTVSSTTTPAPRPPTPAPTIASQPLSLRPEACRPAAGGAVHTRGLDFACDIYIWAPLAGTCGVLLLSLVITLYCKRGRKKLLYIFKQPFMRPVQTTQEEDGCSCRFPEEEEGGCELRVKFSRSADAPAYKQGQNQLYNELNLGRREEYDVLDKRRGRDPEMGGKPRRKNPQEGLYNELQKDKMAEAYSEIGMKGERRRGKGHDGLYQGLSTATKDTYDALHMQALPPR |  |  |  | less than 1% | high levels of IFNγ | high levels of IFNγ

Reference: patent US12606635B2, “Glypican-2-binding moieties, chimeric antigen receptors and uses thereof” (Nanjing Legend Biotech Co., Ltd., priority 2020, dated 2026)
